Reference: patent US20240174750A1 (VIRTUOSO BINCO, published 2024)

What was measured:
[1] = target: T1, extracellular domain (ECD) of human CD47 (19aa-139aa) with C-terminal 6xHis tag (human, UniProt Q08722 19-139); assay: ELISA, coated recombinant CD47; EC50 as grade, legend the 6th table, row 26
T1 construct: also called recombinant CD47; recombinant human CD47
Procedure: A 96-well plate was coated overnight at 4° C. with 1 μg/ml recombinant CD47. After washing 3 times, the plate was blocked with 300 μL 1% BSA in PBST at 37° C. for 1 hour. Serially diluted antibodies were added and incubated at 37° C. for 1 hour. The plate was then washed 4 times with PBST and incubated with 1:5000 diluted 2nd antibody (Sigma, Cat #A0293) at 37° C. for 1 hour.

[2] = target: T2, CD47 on the surface of CD47+ cells (human, UniProt Q08722 19-323); assay: flow cytometry on CD47+ cell lines; EC50 as grade, legend the 7th table, row 26
T2 construct: whole, on cells; also called CD47+ cell lines; CD47 on Raji cells, HCT-15 cells, human red blood cells (RBCs), human platelets
Procedure: Antibody binding to CD47+ cell lines was quantified by flow cytometry. Harvested cells were centrifuged at 2000 rpm for 5 min, resuspended in 10-15 mL ice-cold culture medium, and then counted. Cells were resuspended in blocking buffer (PBS plus 2% FBS) at a concentration of 3×10⁶ cells/mL. 100 μL of the cell suspension was dispensed into each well of a 96-well plate. Purified antibodies were diluted to the desired concentrations with blocking buffer and 100 μL of diluted antibodies were added to the well and incubated for 1 hour at 4° C. The cells were then washed 3 times with PBS plus 2% FBS. […] The cells were then washed 3 times with 200 μL PBS by centrifuging at 2000 rpm for 5 min. After the last wash, the cells were resuspended in 300 μL cold PBS and analyzed on a FACSVerse™ (BD Biosciences) flow cytometer.

[3] = target: T2, CD47 on the surface of CD47+ cells; assay: flow cytometry, competition with SIRPA-mIgG2a on CD47+ tumor cells; IC50 as grade, legend the 8th table, row 26
Procedure: Tumor cells were harvested, centrifuged, and then resuspended in FACS buffer (PBS plus 2% FBS) at a concentration of 2×10⁶ cells/mL. 100 μL of the cell suspension was dispensed into each well of a 96-well plate. The plate was centrifuged for 5 min and 300×g, and the supernatants were discarded. […] After washing twice with FACS buffer, the plates were resuspended with 300 μL FACS buffer and analyzed by flow cytometry.

[4] = target: T1, extracellular domain (ECD) of human …; assay: ELISA on recombinant human CD47; legend: NB: not bound

| Binder | EC50 [1] [nM] | EC50 [2] [nM] | IC50 [3] [nM] | binding result [4] |
| --- | --- | --- | --- | --- |
| R.1B11 (antibody, human IgG1, kappa, V domains shown, Chimeric: rabbit variable domains, human IgG1 and human kappa constant regions) VH: QSLEESGGRLVTPGTPLTLTCTASGFSLNSYHMSWVRQAPGEGLEWIGIIYADTGNADYASWTKGRFTISKASTTVELRITSPTSEDTATYFCARGPTNTYPTYFALWGPGTLVTVSS VL: AFELTQTPSSVEAAVGGTVTIKCQASQSITTYLAWYQQKPGQPPKLLIYGASNLESGVPSRFKGSRSGTEYTLTISDLESADAATYYCQSYYAISKSAFGGGTEVVVKR | 0.01 to 0.1 | 0.1 to 0.5 | 0.1 to 1 | – |
| R.1H3 (antibody, human IgG1, kappa, V domains shown, Chimeric: rabbit variable domains, human IgG1 and human kappa constant regions) VH: QSLEESGGDLVKPGASLTLTCTASGFSFSSGYYMCWVRQAPGKGLEWIACIYMRSGDTYLASWAKGQFTISKTSSTTVTLQMTSLTAADTATYFCGRGGTSYALNLWGQGTLVTVSS VL: DVVMTQTPASVSEPVGGTVTINCQASQSISNECSWYQQKPGQPPKLLIYRASTLESGVPSRFSGSGSGTEFTLTISDLESADAATYYCQSTYYGTTGNTFGGGTEVVVKR | > 0.5 | 0.1 to 0.5 | 0.1 to 1 | – |
| R.20H1 (antibody, human IgG1, kappa, V domains shown, Chimeric: rabbit variable domains, human IgG1 and human kappa constant regions) VH: QEQLVESGGGLVKPGASLTLTCKASGFSFSSGYYMCWVRQAPGKGLEWIGCIYVRSDSTYYASWAKGRFTISKASSTTVTLQMTSLTAADTATYFCARGVTGDSYRFNFWGPGTLVTVSS VL: DVVMTQTPASVEAAVGGTVTIKCQASQSISNELSWYQQKSGQPPKLLIYRASTLESGVPSRFKGSGSGTEFTLTISDLESADAATYYCQSTYYGTSYGNAFGGGTEVVVKR | 0.1 to 0.5 | 0.1 to 0.5 | 0.1 to 1 | – |
| R.13A2 (antibody, human IgG1, kappa, V domains shown, Chimeric: rabbit variable domains, human IgG1 and human kappa constant regions) VH: QSLEESGGDLVKPGASLTVTCTASGFSFSSYYYVCWVRQAPGKGLEWIACIYAGSSGDTYYASWAKGRFTISKTSSTTVTLQMTSLTAADTATYFCARGYTGYSYQFNFWGPGTLVTVSS VL: DVVMTQTPASVEAAVGGTVTIKCQASQSISNELSWYQQKPGQPPKLLIYRASTLESGVPSRFKGSGSGTEFTLTISDLESADAATYYCQCTYITYGNAFGGGTEVVVKR | > 0.5 | 0.5 to 5 | 0.1 to 1 | – |
| R.15G10 (antibody, human IgG1, kappa, V domains shown, Chimeric: rabbit variable domains, human IgG1 and human kappa constant regions) VH: QSLEESGGRLVTPGTPLTLTCTASGFTISSYHMNWVRQAPGEGLEWIGIIYVGSGNADYASWAKGRFTISKASTTVDLKITSPTTEDTATYFCARGPTNTYPTYFNLWGPGTLVTVSS VL: AFELTQTPSSVEAAVGGTVTIKCQASRSITSYLAWYQHKPGQPPTLLIYAASNVASGVSSRFKGSRSGTEYTLTISDLESADAATYYCQSYYAISTNTFGGGTEVVVKR | 0.01 to 0.1 | 0.5 to 5 | 0.1 to 1 | – |
| R.9B11 (antibody, human IgG1, kappa, V domains shown, Chimeric: rabbit variable domains, human IgG1 and human kappa constant regions) VH: QEQLEESGGDLVKPEGSLTLTCTASGFSFSSYWMAWVRQAPGKGLEWIACIYIGSGSGTTYYASWAKGRFTISKTSSTTVTLQMTSLTAADTAIYFCARWAGSDGHFTLWGPGTLVTVSL VL: ALVMTQTPASVEAAVGGTVTINCQASQSINNLLAWYQQKPGQRPKLLIYDASDLASGVSSRFKGSGSGTEYTLTISGVQSADAATYYCQGYFYGSSVDLVFGGGTEVVVKR | 0.01 to 0.1 | 0.5 to 5 | 1 to 5 | – |
| M.95D4A11 (antibody, human IgG1, kappa, V domains shown, Chimeric: mouse variable domains, human IgG1 and human kappa constant regions) VH: QVQLQQPGAELVRPGASVKLSCKASGYTFTSYWMNWVKQRPEQGLEWIGSIDPYDSETHYNQKFKDKAILTVDKSSSTAYMQLSSLTSEDSAVYYCARGRGYAMDYWGQGTSVTVSS VL: DIQMTQSPASLSASVGETVTITCRASGNIHNYLAWYQQKQGKSPQLLVYNAKTLADGVPSRFSGSGSGTQYSLKINSLQPEDFGSYYCQHFWSTPPTFGGGTKLEIKR | 0.01 to 0.1 | 0.1 to 0.5 | 0.1 to 1 | – |
| M.69H1H9 (antibody, human IgG1, kappa, V domains shown, Chimeric: mouse variable domains, human IgG1 and human kappa constant regions) VH: EVQLQQSGPELVKPGASVKMSCKTSGYTFTEYTIHWVKQSHEKSLEWIGSINPNNGLFRYNQKFKGKATLTVDKSSSTAYMELRSLTSEDSAVYYCARDYGFGYSDYWGQGTTLTVSS VL: DIQMIQSPSSMFASLGDRVSLSCRASQGIRGNLDWYQQKPGGTIKLLIYSTSNLNSGVPSRFSGSGSGSDYSLTISSLESEDFADYYCLQRNAFPWTFGGGTKLEIKR | 0.01 to 0.1 | 0.1 to 0.5 | 0.1 to 1 | – |
| R.19H7 (antibody, human IgG1, kappa, V domains shown, Chimeric: rabbit variable domains, human IgG1 and human kappa constant regions) VH: QEQLKESGGGLVTPGGTLTLTCTASGFTISSYHMCWVRQAPGKGLEWIGCIYPNNDFTWYATWAKGRFTISKTSSTTVDLRMTTPTTEETATYFCARASGNAYNLLDLWGQGTLVTVSS VL: AIVMTQTPASVSVAVGGSVTINCQSSESVYRDNCLGWFQQKPGQPPKLLIYRASTLASGVPSRFKGSGSGTQFTLTISDVVSDDAATYYCAGYKSTITDGTAFGGGTEVVVKR | 0.1 to 0.5 | 0.1 to 0.5 | 1 to 5 | – |
| R.14G4 (antibody, human IgG1, kappa, V domains shown, Chimeric: rabbit variable domains, human IgG1 and human kappa constant regions) VH: QEQLKESGGGLVTPGGTLTLTCTASGFTITSYHMCWVRQAPGKGLEWIGCIYPNNGFTWYASWAKGRFTISKTSSTTVDLKMTSPTTEEMATYFCARGSGNSYNQLDLWGQGTLVTVSS VL: AIVMTQTPASVSATLGGSVTINCQSSESVYRDNCLGWFQQKPGQPPKLLIYKASTLASGVPSRFKGSGSGTQFTLTISDVVSDDAATYYCAGYKSTITDGTAFGGGTEVVVKR | > 0.5 | > 5 | 1 to 5 | – |
| M.20B10E9 (antibody, human IgG1, kappa, V domains shown, Chimeric: mouse variable domains, human IgG1 and human kappa constant regions) VH: EVQLQQSGAELVRPGASVKLSCTASGFNIEDTYMHWVKQRPEQGLEWIGRIDPANGKTKSDPKFQGKATITTDTSSNTAYLQLSSLTSEDTAVYYCAKGDGYYVGGLDYWGQGTTLTVSS VL: DIQMNQSPSSLSASLGDTITITCHASQNIHVWLSWYQQKPGNIPKLLIYKASNLHTGVPSRFSGSGSGTGFTLTISSLQPEDIATYYCQQGQSYPYTFGGGTKLEIKR | 0.01 to 0.1 | 0.1 to 0.5 | 0.1 to 1 | – |
| M.30A5C6 (antibody, human IgG1, kappa, V domains shown, Chimeric: mouse variable domains, human IgG1 and human kappa constant regions) VH: EVQLQQSGAELVKPGASVKLSCTASGFNIEDTYMHWVKQRPEQGLEWIGRIDPANGNTKYDPKFQGKATVTADTSSNTAYLQLSSLTSEDTAVYCCARGDGHYVGGLNYWGQGTSLTVSS VL: DIQMNQSPSSLSASLGDTITITCHASQNINVWLSWYQQKPGNIPKLLIYKASNLHTGVPSRFSGSGSGTGFTLTISSLQPEDIATYYCQQGQNYPYTFGGGTKLEIKR | 0.01 to 0.1 | 0.1 to 0.5 | 0.1 to 1 | – |

Results, then the binder that gave them:

| EC50 [1] [nM] | EC50 [2] [nM] | IC50 [3] [nM] | binding result [4] | Binder |
| --- | --- | --- | --- | --- |
| – | – | – | no binding | hu.18B9.3i HC_D95A (antibody, name in Kabat numbering, V domains shown, Alanine scan variant of hu.18B9.3i; Kabat numbering) VH: EVQLVESGGGLVQPGGSLRLSCAASGFSFNSGYMSWVRQAPGKGLEWIASIYAGSSGKTYYADWAKGRFTISKTSSKTTVYLQMNSLRAEDTAVYYCARASGGTYYTDYLYLWGQGTLVTVSS VL: DIQMTQSPSSLSASVGDRVTITCRASEGISSYLSWYQQKPGKAPKLLIYKASTLTSGVPSRFSGSGSGTDFTLTISSLQPEDFATYYCQSTYGSSGSSGYGAAFGGGTKVEIK |
| – | – | – | no binding | hu.18B9.3i HC_Y101A (antibody, name in Kabat numbering, V domains shown, Alanine scan variant of hu.18B9.3i; Kabat numbering) VH: EVQLVESGGGLVQPGGSLRLSCAASGFSFNSGYMSWVRQAPGKGLEWIASIYAGSSGKTYYADWAKGRFTISKTSSKTTVYLQMNSLRAEDTAVYYCARDSGGTYYTDYLALWGQGTLVTVSS VL: DIQMTQSPSSLSASVGDRVTITCRASEGISSYLSWYQQKPGKAPKLLIYKASTLTSGVPSRFSGSGSGTDFTLTISSLQPEDFATYYCQSTYGSSGSSGYGAAFGGGTKVEIK |
| – | – | – | no binding | hu.18B9.3i HC_Y100d_A (antibody, V domains shown, Alanine scan variant of hu.18B9.3i; Kabat numbering) VH: EVQLVESGGGLVQPGGSLRLSCAASGFSFNSGYMSWVRQAPGKGLEWIASIYAGSSGKTYYADWAKGRFTISKTSSKTTVYLQMNSLRAEDTAVYYCARDSGGTYYTDALYLWGQGTLVTVSS VL: DIQMTQSPSSLSASVGDRVTITCRASEGISSYLSWYQQKPGKAPKLLIYKASTLTSGVPSRFSGSGSGTDFTLTISSLQPEDFATYYCQSTYGSSGSSGYGAAFGGGTKVEIK |
| – | – | – | no binding | hu.18B9.3i HC_D100c_A (antibody, V domains shown, Alanine scan variant of hu.18B9.3i; Kabat numbering) VH: EVQLVESGGGLVQPGGSLRLSCAASGFSFNSGYMSWVRQAPGKGLEWIASIYAGSSGKTYYADWAKGRFTISKTSSKTTVYLQMNSLRAEDTAVYYCARDSGGTYYTAYLYLWGQGTLVTVSS VL: DIQMTQSPSSLSASVGDRVTITCRASEGISSYLSWYQQKPGKAPKLLIYKASTLTSGVPSRFSGSGSGTDFTLTISSLQPEDFATYYCQSTYGSSGSSGYGAAFGGGTKVEIK |
| – | – | – | no binding | hu.18B9.3i HC_G98A (antibody, name in Kabat numbering, V domains shown, Alanine scan variant of hu.18B9.3i; Kabat numbering) VH: EVQLVESGGGLVQPGGSLRLSCAASGFSFNSGYMSWVRQAPGKGLEWIASIYAGSSGKTYYADWAKGRFTISKTSSKTTVYLQMNSLRAEDTAVYYCARDSGATYYTDYLYLWGQGTLVTVSS VL: DIQMTQSPSSLSASVGDRVTITCRASEGISSYLSWYQQKPGKAPKLLIYKASTLTSGVPSRFSGSGSGTDFTLTISSLQPEDFATYYCQSTYGSSGSSGYGAAFGGGTKVEIK |
| – | – | – | no binding | hu.18B9.3i HC_G97A (antibody, name in Kabat numbering, V domains shown, Alanine scan variant of hu.18B9.3i; Kabat numbering) VH: EVQLVESGGGLVQPGGSLRLSCAASGFSFNSGYMSWVRQAPGKGLEWIASIYAGSSGKTYYADWAKGRFTISKTSSKTTVYLQMNSLRAEDTAVYYCARDSAGTYYTDYLYLWGQGTLVTVSS VL: DIQMTQSPSSLSASVGDRVTITCRASEGISSYLSWYQQKPGKAPKLLIYKASTLTSGVPSRFSGSGSGTDFTLTISSLQPEDFATYYCQSTYGSSGSSGYGAAFGGGTKVEIK |
